Laboratory results published in US20240101668A1 (WUGEN, published 2024).

Tests used:
[1] = target: T1, huCD33-R69 stably expressed on Jurkat cells (human, UniProt P20138 18-364); test: FACS on cells;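 further: fixed Jurkat lines probed with myc-tagged scFv periplasmic extracts, anti-myc PE flow cytometry, PE MFI fold binned − <2, + 2–10, ++ 10–30, +++ >30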
T1 construct: whole, on cells; >200,000 receptors per cell; also called CD33 WT; CD33^ARG69

[2] = target: T2, huCD33-G69 stably expressed on Jurkat cells (human, UniProt P20138 18-364); test: FACS on cells;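 further: fixed Jurkat lines probed with myc-tagged scFv periplasmic extracts, anti-myc PE flow cytometry, PE MFI fold binned − <2, + 2–10, ++ 10–30, +++ >30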
T2 construct: whole, on cells; >200,000 receptors per cell; also called CD33 Mutant; CD33 R69G
T2 sequence (P20138 18-364 R69G): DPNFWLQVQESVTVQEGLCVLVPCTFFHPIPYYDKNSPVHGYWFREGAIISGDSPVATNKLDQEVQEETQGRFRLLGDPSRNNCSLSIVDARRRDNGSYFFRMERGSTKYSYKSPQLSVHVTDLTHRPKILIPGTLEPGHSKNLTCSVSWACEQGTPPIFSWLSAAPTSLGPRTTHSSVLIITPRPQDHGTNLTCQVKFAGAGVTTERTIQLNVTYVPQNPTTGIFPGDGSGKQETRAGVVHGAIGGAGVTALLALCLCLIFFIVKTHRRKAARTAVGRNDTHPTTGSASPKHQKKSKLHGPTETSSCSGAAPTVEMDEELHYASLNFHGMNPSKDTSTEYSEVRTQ

[3] = target: T3, huCD33-G69-Fc recombinant protein (human, UniProt P20138 18-259); test: BLI;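 further: biolayer interferometry: scFvs captured from periplasmic extracts on anti-V5-loaded streptavidin biosensors, antigen association for 2 min, buffer dissociation for 5 min, 1:1 Langmuir fit giving off-rate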
T3 construct: extracellular domain; also called CD33 R69G
T3 sequence (P20138 18-259 R69G): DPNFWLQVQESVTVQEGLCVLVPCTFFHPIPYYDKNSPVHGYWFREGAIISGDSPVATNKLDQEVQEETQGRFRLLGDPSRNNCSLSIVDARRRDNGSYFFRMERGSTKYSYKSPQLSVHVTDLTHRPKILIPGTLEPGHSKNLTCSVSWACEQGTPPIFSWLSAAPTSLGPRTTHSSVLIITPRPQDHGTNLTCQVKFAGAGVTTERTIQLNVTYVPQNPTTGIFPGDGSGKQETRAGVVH
Method: Discovered scFvs were analyzed for binding to huCD33-R69-His or huCD33-G69-Fc recombinant proteins (for anti-CD33 scFvs; for CLL-1 scFvs, huCLL1-K244-Avi-Tev-His or huCLL1-Q244-Avi-Tev-His were used; for FLT3, huFLT3-T227-His or huFLT3-M227-Fc were used) using BLI on a ForteBio Octet HTX instrument. Streptavidin-coated biosensors were loaded with biotinylated anti-V5 tag monoclonal antibody for 5 min and were then quenched and blocked with 20 μM amine-PEG2-Biotin for 5 min. scFvs were captured on biosensors from scFv clone periplasmic extracts. huCD33 (or huCLL-1, or huFLT3) proteins were then associated with the captured scFvs for 2 minutes, followed by dissociation with buffer (1×HBST [10 mM HEPES pH 7.4, 150 mM NaCl, 0.05% Tween-20], 1 g/L BSA) for 5 minutes. […] Data was fitted with 1:1 Langmuir equation and off-rate values were reported.

T1 sequence (P20138 18-364): as the sequence (P20138 18-364 R69G) above, with G52R counted along it

FACS geometric mean fold change over Jurkat parental [1] | FACS geometric mean fold change over Jurkat parental [2] | binding result [3] | Binder
2 to 10 fold | 2 to 10 fold | binds | Polypeptide No. 112 (scFv, V domains shown, scFv) VH: QVQLVQSGAEVKKPGSSVKVSCKASGSTLTGYDIHWVRQAPGQGLEWMGGIIPFLGTASYAQEFQGRVTITADESTSTAYMELSSLRSEDTAVYYCARGGGSGYDLDYWGQGTLVTVSS VL: DIQMTQSPSSLSASVGDRVTITCRSSESISSWLAWYQQKPGKAPKLLIYSASTLQSGVPSRFSGSGSGTDFTLTISSLQPEDFATYYCQQSYSTPVTFGQGTRLEIKR
> 30 fold | 10 to 30 fold | binds | Polypeptide No. 114 (scFv, V domains shown, scFv) VH: QVQLVQSGAEVKKPGASVKVSCKASGGTFSKYAISWVRQAPGQGLEWMGWMNPNSGNTGYAQKFQGRVTMTRDTSTSTVYMELSSLRSEDTAVYYCARDQGLTGYFDLWGRGTLVTVSS VL: DIQMTQSPSSLSASVGDRVTITCRASQSIGNWLAWYQQKPGKAPKLLIYKASSLESGVPSRFSGSGSGTDFTLTISSLQPEDFATYYCQQSYNTPPTFGPGTKVDIKR
> 30 fold | > 30 fold | binds | Polypeptide No. 110 (scFv, V domains shown, scFv) VH: QVQLVQSGAEVKKPGASVKVSCKASGYTFTDYYVHWVRQAPGQGLEWMGWMNPNSGNTGYAQKFQGRVTMTRDTSTSTVYMELSSLRSEDTAVYYCARDFIWVEGYLASPPPRFDYWGQGTLVTVSS VL: DIQMTQSPSSLSASVGDRVTITCRASQRIGNWLAWYQQKPGKAPKLLIYAASSLQSGVPSRFSGSGSGTDFTLTISSLQPEDFATYYCQQSYSTPLTFGQGTKLEIKR
10 to 30 fold | 10 to 30 fold | binds | Polypeptide No. 115 (scFv, V domains shown, scFv) VH: QVQLVQSGAEVKKPGASVKVSCKASGYTFTGYYMHWVRQAPGQGLEWMGIISPSGGSPTYAQKFQGRVTMTRDTSTSTVYMELSSLRSEDTAVYYCAREGNGGMDVWGQGTTVTVSS VL: not shown
> 30 fold | 10 to 30 fold | binds | Polypeptide No. 111 (scFv, V domains shown, scFv) VH: QVQLVQSGAEVKKPGASVKVSCKASGGTFTSYGISWVRQAPGQGLEWMGWINPNTGVTNYAQDFQGRVTMTRDTSTSTVYMELSSLRSEDTAVYYCANEQGGFDYWGQGTLVTVSS VL: EIVMTQSPATLSVSPGERATLSCRASQSVAGSYLAWYQQKPGQAPRLLIYGASTRATGIPARFSGSGSGTEFTLTISSLQSEDFAVYYCQQYYSTPLTFGGGTKVEIKR
> 30 fold | 10 to 30 fold | binds | Polypeptide No. 113 (scFv, V domains shown, scFv) VH: QVQLVQSGAEVKKPGSSVKVSCKASGGTFSSYDINWVRQAPGQGLEWMGGLIPVFGTTHYAQNFQGRVTITADESTSTAYMELSSLRSEDTAVYYCATGLGVTTSNYYYGMDVWGQGTLVTVSS VL: DIQMTQSPSSLSASVGDRVTITCRASQGIRNDIGWYQQKPGKAPKLLIYAASTLQSGVPSRFSGSGSGTDFTLTISSLQPEDFATYYCQQTYMMPYTFGQGTKLEIKR

More lines, now with the values behind:

Binder | FACS geometric mean fold change over Jurkat parental [1] | FACS geometric mean fold change over Jurkat parental [2] | binding result [3]
Polypeptide No. 102 (scFv, V domains shown, scFv) VH: EVQLLESGGGLVQPGGSLRLSCAASGFTFSNAWMSWVRQAPGKGLEWVSGIGGSGGTIYYADSVKGRFTISRDNSKNTLYLQMNSLRAEDTAVYYCAREVAAPLHPFGYYYYMDVWGKGTTVTVSS VL: not shown | 10 to 30 fold | 10 to 30 fold | binds
Polypeptide No. 96 (scFv, V domains shown, scFv) VH: QVQLVQSGAEVKKPGASVKVSCKASGGTFSSYAISWVRQAPGQGLEWMGWMNPSSANTGYAQKFQGRVTMTRDTSTSTVYMELSSLRSEDTAVYYCAKDEMELLTAFDIWGQGTMVTVSS VL: DIQMTQSPSSLSASVGDRVTITCRASQSIGSWLAWYQQKPGKAPKLLIYGVSTLHSGVPSRFSGSGSGTDFTLTISSLQPEDFATYYCQQSYSTPPTFGQGTKLEIKR | > 30 fold | > 30 fold | binds
Polypeptide No. 105 (scFv, V domains shown, scFv) VH: EVQLLESGGGLVQPGGSLRLSCAASGFTFNNAWMTWVRQAPGKGLEWVAVISYDGSNKYYADSVKGRFTISRDNSKNTLYLQMNSLRAEDTAVYYCARMAVAGKGAFDIWGQGTMVTVSS VL: DIQMTQSPSSLSASVGDRVTITCRASQSIYSWLAWYQQKPGKAPKLLIYAASTLQSGVPSRFSGSGSGTDFTLTISSLQPEDFATYYCQQTYSTPVTFGQGTKVEIKR | 10 to 30 fold | 10 to 30 fold | binds
Polypeptide No. 98 (scFv, V domains shown, scFv) VH: QVQLVQSGAEVKKPGASVKVSCKASGGSFSSSAINWVRQAPGQGLEWMGWMNPNSGNTGYAQKFQGRVTMTRDTSTSTVYMELSSLRSEDTAVYYCARDRGIAVAGASPYYYYGMDVWGQGTTVTVSS VL: DIQMTQSPSSLSASVGDRVTITCRASQDIGSYLAWYQQKPGKAPKLLIYAASSLQSGVPSRFSGSGSGTDFTLTISSLQPEDFATYYCHQSYSTPFTFGQGTKLEIKR | 10 to 30 fold | > 30 fold | binds
Polypeptide No. 104 (scFv, V domains shown, scFv) VH: EVQLLESGGGLVQPGGSLRLSCAASGFTFSSSWMHWVRQAPGKGLEWVAVISYDGSEEYYADSVKGRFTISRDNSKNTLYLQMNSLRAEDTAVYYCARLTDYGDYVLGRYLSDWGQGTLVTVSS VL: DIQMTQSPSSLSASVGDRVTITCRASQGISSYLAWYQQKPGKAPKLLIYAASSLQSGVPSRFSGSGSGTDFTLTISSLQPEDFATYYCQQSYSIPPTFGQGTKLEIKR | > 30 fold | > 30 fold | binds
Polypeptide No. 101 (scFv, V domains shown, scFv) VH: EVQLLESGGGLVQPGGSLRLSCAASGFTFSSYGVHWVRQAPGKGLEWVSAISGDGGDTYYADSVKGRFTISRDNSKNTLYLQMNSLRAEDTAVYYCARDTWDYSNYGGIDYWGQGTLVTVSS VL: DIQMTQSPSSLSASVGDRVTITCRASQNINTFLNWYQQKPGKAPKLLIYAASTLQSGVPSRFSGSGSGTDFTLTISSLQPEDFATYYCQQYDSFPLTFGGGTKVEIKR | > 30 fold | > 30 fold | binds
Polypeptide No. 106 (scFv, V domains shown, scFv) VH: QVQLVQSGAEVKKPGASVKVSCKASGYTFTGYYMHWVRQAPGQGLEWMGRIKPNSGGTDYAQKFQGRVTMTRDTSTSTVYMELSSLRSEDTAVYYCARGAYSGSYYGPIEYFQHWGQGTLVTVSS VL: DIQMTQSPSSLSASVGDRVTITCRASQSISWFLNWYQQKPGKAPKLLIYAASSLQNGVPSRFSGSGSGTDFTLTISSLQPEDFATYYCQQYGSFPPTFGGGTKVEIKR | 2 to 10 fold | 2 to 10 fold | binds
Polypeptide No. 103 (scFv, V domains shown, scFv) VH: QVQLVQSGAEVKKPGASVKVSCKASGYTFTGYYMHWVRQAPGQGLEWMGWMNPDSGDTNYAQNFQGRVTMTRDTSTSTVYMELSSLRSEDTAVYYCATTRQPHYGMDVWGQGTTVTVSS VL: not shown | 10 to 30 fold | 10 to 30 fold | binds
Polypeptide No. 97 (scFv, V domains shown, scFv) VH: EVQLLESGGGLVQPGGSLRLSCAASGFTFRSYWMTWVRQAPGKGLEWVSVISGSGDNTYYADSVKGRFTISRDNSKNTLYLQMNSLRAEDTAVYYCARETTWGMDVWGQGTTVTVSS VL: DIQMTQSPSSLSASVGDRVTITCRASQSISSYLNWYQQKPGKAPKLLIYDASNLETGVPSRFSGSGSGTDFTLTISSLQPEDFATYYCQQSSIIPLTFGGGTKVEIKR | 10 to 30 fold | 2 to 10 fold | binds
Polypeptide No. 109 (scFv, V domains shown, scFv) VH: QVQLVQSGAEVKKPGSSVKVSCKASGYTFTTYGISWVRQAPGQGLEWMGWMNPNSGNTGYAQKFQGRVTITADESTSTAYMELSSLRSEDTAVYYCAREGGDGDYPDYWGQGTLVTVSS VL: EIVMTQSPATLSVSPGERATLSCRASQSISSSSLAWYQQKPGQAPRLLIYGASTRATGIPARFSGSGSGTEFTLTISSLQSEDFAVYYCQQYETAPYTFGQGTKLEIKR | 10 to 30 fold | 10 to 30 fold | binds
Polypeptide No. 99 (scFv, V domains shown, scFv) VH: QVQLVQSGAEVKKPGSSVKVSCKASGYTFSDYHIHWVRQAPGQGLEWMGWMNPNSGNTGYAQKFQGRVTITADESTSTAYMELSSLRSEDTAVYYCARTHSSGYYYWFDPWGQGTLVTVSS VL: DIQMTQSPSSLSASVGDRVTITCRASQGISNNLNWYQQKPGKAPKLLIYQASNKDTGVPSRFSGSGSGTDFTLTISSLQPEDFATYYCQQSYSSPPTFGQGTKVEIKR | > 30 fold | 10 to 30 fold | binds
Polypeptide No. 107 (scFv, V domains shown, scFv) VH: QVQLVQSGAEVKKPGSSVKVSCKASGYTFTDYYIHWVRQAPGQGLEWMGGIIPIFGTANYAQKFQGRVTITADESTSTAYMELSSLRSEDTAVYYCAREPLWFGESSPHDYYGMDVWGQGTLVTVSS VL: DIQMTQSPSSLSASVGDRVTITCQASQDISNYLNWYQQKPGKAPKLLIYAASTLQSGVPSRFSGSGSGTDFTLTISSLQPEDFATYYCQQSYSSPPTFGQGTKVEIKR | 10 to 30 fold | 10 to 30 fold | binds
